Experimental findings from patent US20240376218A1 are described below.

The target in one assay is human CCR8 (human) (UniProt P51685). Description: cell-based or functional assay.
Assay [1] concerns the target human CCR8 tagged with ProLink (human). The assay is described as follows: cell-based or functional assay.
Assay [2] addresses cynomolgus CCR8 (cynomolgus). Description: FACS, CHO cells expressing cynomolgus CCR8, signal at saturation. In general terms: In flow cytometry, cells or beads pass a laser one at a time.

A value given as a limit tells only on which side of the number the result lay.

cynomolgus CCR8 (cynomolgus), sequence (O97665 other isoform, or with tags, fused parts or gaps): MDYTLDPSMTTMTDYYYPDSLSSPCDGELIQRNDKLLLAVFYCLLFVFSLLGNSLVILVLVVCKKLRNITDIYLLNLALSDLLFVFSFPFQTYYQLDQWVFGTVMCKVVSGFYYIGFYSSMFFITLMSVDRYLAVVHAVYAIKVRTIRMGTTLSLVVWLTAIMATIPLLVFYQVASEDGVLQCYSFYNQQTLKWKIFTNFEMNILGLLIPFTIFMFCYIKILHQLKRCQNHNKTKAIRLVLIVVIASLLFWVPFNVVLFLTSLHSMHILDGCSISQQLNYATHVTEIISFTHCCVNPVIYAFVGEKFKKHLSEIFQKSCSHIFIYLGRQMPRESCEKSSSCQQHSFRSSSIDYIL

B1: 433H (antibody, from another filing, V domains shown)
VH: EVQLVETGGGLVQPKGSLRLSCAASGFPFNTFAMNWVRQAPGKGLEWLARIRSKSNNYATYYADSVKDRFTISRDDSRRMLYLLMNNVKFEDTAIYYCVRGKENNYGYAMDYWGQGTSVTVSS
VL: DIVMTQAAPSVPVTPGESVSISCRSSQSLLHSNGNTYLYWFLQRPGQSPQLLIYRMSNLASGVPDRFSGSGSGTAFTLRISRVEAEDVGVYYCMQHLEYPFTFGIGTKLELKR
As for B1, in the assay with human CCR8 (human), the Ca flux assay IC50 (nM), block of signaling induced by CCL1 at 60 ng/ml; CHO cells expressing human CCR8 was 1.3 nM; the Ca flux assay Span ratio (from max to min), block of signaling induced by CCL1 at 60 ng/ml; CHO cells expressing human CCR8 was 996; the Internalization [fold isotype], HuT78 cells, BODIPY FL-labelled antibody is 22 fold isotype. In assay [1], this molecule yielded an IC50 in nM for inhibition of CCL1 induced β-arrestin signaling (DiscoverX assay), CHO with hCCR8 of 0.78 nM.

B2: Clone 433H (ICOS, BD) (antibody, from another filing, V domains shown)
VH: EVQLVETGGGLVQPKGSLRLSCAASGFPFNTFAMNWVRQAPGKGLEWLARIRSKSNNYATYYADSVKDRFTISRDDSRRMLYLLMNNVKFEDTAIYYCVRGKENNYGYAMDYWGQGTSVTVSS
VL: DIVMTQAAPSVPVTPGESVSISCRSSQSLLHSNGNTYLYWFLQRPGQSPQLLIYRMSNLASGVPDRFSGSGSGTAFTLRISRVEAEDVGVYYCMQHLEYPFTFGIGTKLELKR
In the case of B2, the MFI in assay [2] is less than 1000.
